Values belong to the substance of their own block, whether it stands above or below them.
Key:
HRI = HRI (UniProt Q9BQI3); assay: co-immunoprecipitation with anti-FLAG antibody; conditions: reference: wild type BAG3-FLAG; sites S173,S377,S386
BAG3 = BAG3 (UniProt O95817); assay: co-immunoprecipitation; conditions: sites T287

- binding against the reference (HRI): weaker
Substance: BAG3 (from UniProt O95817) BAG3 3A (S173A/S377A/S386A)

- binding against the reference (BAG3; reference: wild type CaMKIIβ): weaker
Substance: CaMKIIβ (from UniProt Q13554) CaMKIIβ T287A

- binding against the reference (BAG3; reference: wild type CaMKIIδ): weaker
Substance: CaMKIIδ (from UniProt Q13557) CaMKIIδ T287A
